# T1: FGFR1 (Table 1) (UniProt P11362 22-376, limits assumed)
# T1 construct: the construct is not described
# T1 sequence (looked up): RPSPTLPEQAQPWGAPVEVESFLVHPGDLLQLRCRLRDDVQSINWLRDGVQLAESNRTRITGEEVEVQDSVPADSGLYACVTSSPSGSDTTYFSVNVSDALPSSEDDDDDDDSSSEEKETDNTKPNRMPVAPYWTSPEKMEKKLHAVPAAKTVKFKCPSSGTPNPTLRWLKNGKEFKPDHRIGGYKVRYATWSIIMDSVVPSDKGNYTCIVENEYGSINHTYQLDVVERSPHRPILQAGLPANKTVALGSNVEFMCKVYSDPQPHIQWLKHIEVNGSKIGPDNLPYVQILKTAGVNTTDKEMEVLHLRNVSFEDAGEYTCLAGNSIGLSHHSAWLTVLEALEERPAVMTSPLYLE
# Columns and labels:
# [1] = target: T2, wild type FGFR3 expressed on cells (UniProt P22607 23-806, limits assumed); assay: FACS
# T2 construct: whole, on cells; the myeloma cell lines and patient cells are human; also called WT FGFR3; B9-FGFR3^WT
# [2] = target: T2, wild type FGFR3 expressed on cells; assay: cell-based or functional assay
# [3] = target: FGFR3-F384L expressed on B9 cells (UniProt P22607 23-806); assay: cell-based or functional assay
# [4] = target: FGFR3-Y373C expressed on B9 cells (UniProt P22607 23-806); assay: cell-based or functional assay
# [5] = target: T2, wild type FGFR3 expressed on cells; assay: cell-based or functional assay; remark: listed apart in the source
# FGFR1 (Table 1) = target: T1, FGFR1 (Table 1); assay: BIAcore and/or FACS
# T2 sequence (P22607 23-806 limits assumed): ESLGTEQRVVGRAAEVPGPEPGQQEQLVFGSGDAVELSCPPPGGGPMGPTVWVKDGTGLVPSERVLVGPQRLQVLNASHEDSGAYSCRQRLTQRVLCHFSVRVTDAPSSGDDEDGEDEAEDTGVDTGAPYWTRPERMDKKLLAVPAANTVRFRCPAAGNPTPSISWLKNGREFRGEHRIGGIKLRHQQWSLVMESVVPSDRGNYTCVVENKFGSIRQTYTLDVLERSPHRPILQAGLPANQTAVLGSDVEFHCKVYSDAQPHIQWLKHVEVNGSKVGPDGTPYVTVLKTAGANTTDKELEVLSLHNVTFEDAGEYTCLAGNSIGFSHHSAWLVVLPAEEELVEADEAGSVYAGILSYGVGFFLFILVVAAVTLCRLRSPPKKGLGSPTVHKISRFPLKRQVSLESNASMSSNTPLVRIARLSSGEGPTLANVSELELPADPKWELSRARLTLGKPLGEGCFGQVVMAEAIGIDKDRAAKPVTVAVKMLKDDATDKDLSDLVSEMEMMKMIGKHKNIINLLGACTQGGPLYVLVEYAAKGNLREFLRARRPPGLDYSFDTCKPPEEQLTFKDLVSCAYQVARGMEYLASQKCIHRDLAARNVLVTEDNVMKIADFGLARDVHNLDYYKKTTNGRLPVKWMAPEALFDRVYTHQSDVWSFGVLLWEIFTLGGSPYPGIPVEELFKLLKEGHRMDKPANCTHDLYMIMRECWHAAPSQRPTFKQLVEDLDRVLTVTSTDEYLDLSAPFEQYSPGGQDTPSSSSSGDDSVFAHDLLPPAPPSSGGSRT
# Sequence of FGFR3-F384L expressed on B9 cells (P22607 23-806 F384L limits assumed): as the sequence (P22607 23-806 limits assumed) above, with F362L counted along it
# Sequence of FGFR3-Y373C expressed on B9 cells (P22607 23-806 Y373C limits assumed): as the sequence (P22607 23-806 limits assumed) above, with Y351C counted along it
Binder,Kd [1] [nM],IC50 of FGF stimulated proliferation of FDCP-FGFR3 cells (XTT) [2] [µg/mL],IC50 of FGF-stimulated growth of B9 cells expressing FGFR3 F384L [3] [µg/mL],IC50 of FGF-stimulated growth of B9 cells expressing Y373C-FGFR3 [4] [µg/mL],"IC50 FGFR3 (FGF9), FDCP-FGFR3 proliferation assay (dHLX format) [5] [nM]",Kd (FGFR1 (Table 1)) [nM]
"PRO-001 Fab (Fab, V domains shown, Human Fab from the HuCAL-Fab-1 library; also called human anti-FGFR3 Fab PRO-001; anti-FGFR3 antibody) VH: QVQLQQSGPGLVKPSQTLSLTCAISGDSVSSNSAAWNWIRQSPGRGLEWLGRTYYRSKWYNDYAVSVKSRITINPDTSKNQFSLQLNSVTPEDTAVYYCARSYYPDFDYWGQGTLVTVSS VL: DIELTQPPSVSVAPGQTARISCSGDALGDKYASWYQQKPGQAPVLVIYDDSDRPSGIPERFSGSNSGNTATLTISGTQAEDEADYYCQSYDGPDLWVFGGGTKLTVLG",0.7,0.5,~3,~3,19,
"PRO-002 (Fab, V domains shown, HuCAL clone; the IC50 may be of the Fab-dHLX format) VH: QVQLVQSGAEVKKPGASVKVSCKASGYTFTSYYMHWVRQAPGQGLEWMGWINPNSGGTNYAQKFQGRVTMTRDTSISTAYMELSSLRSEDTAVYYCARDFLGYEFDYWGQGTLVTVSS VL: DIELTQPPSVSVAPGQTARISCSGDALGDKYASWYQQKPGQAPVLVIYDDSDRPSGIPERFSGSNSGNTATLTISGTQAEDEADYYCQSYDYSADYVFGGGTKLTVLG",43,,,,360,
"PRO-012 (Fab, V domains shown, HuCAL clone; the IC50 may be of the Fab-dHLX format) VH: QVQLKESGPALVKPTQTLTLTCTFSGFSLSTSGVGVGWIRQPPGKALEWLALIDWDDDKYYSTSLKTRLTISKDTSKNQVVLTMTNMDPVDTATYYCARYHSWYEMGYYGSTVGYMFDYWGQGTLVTVSS VL: DIELTQPPSVSVAPGQTARISCSGDALGDKYASWYQQKPGQAPVLVIYDDSDRPSGIPERFSGSNSGNTATLTISGTQAEDEADYYCQSYDFDFAVFGGGTKLTVLG",6.5,,,,58,
"PRO-054 (Fab, V domains shown, HuCAL clone) VH: QVQLVQSGAEVKKPGASVKVSCKASGYTFTSYYMHWVRQAPGQGLEWMGWINPNSGGTNYAQKFQGRVTMTRDTSISTAYMELSSLRSEDTAVYYCARNMAYTNYQYVNMPHFDYWGQGTLVTVSS VL: DIELTQPPSVSVAPGQTARISCSGDALGDKYASWYQQKPGQAPVLVIYDDSDRPSGIPERFSGSNSGNTATLTISGTQAEDEADYYCQSYDYFKLVFGGGTKLTVLG",,,,,45,2.5
"PRO-029 (Fab, V domains shown, HuCAL clone) VH: QVQLVQSGAEVKKPGASVKVSCKASGYTFTSYYMHWVRQAPGQGLEWMGWINPNSGGTNYAQKFQGRVTMTRDTSISTAYMELSSLRSEDTAVYYCARTWQYSYFYYLDGGYYFDIWGQGTLVTVSS VL: DIVLTQSPATLSLSPGERATLSCRASQSVSSSYLAWYQQKPGQAPRLLIYGASSRATGVPARFSGSGSGTDFTLTISSLEPEDFATYYCQQTNNAPVTFGQGTKVEIKR",< 1,,,,20,29
"PRO-021 (Fab, V domains shown, HuCAL clone; the IC50 may be of the Fab-dHLX format) VH: QVQLVQSGAEVKKPGSSVKVSCKASGGTFSSYAISWVRQAPGQGLEWMGGIIPIFGTANYAQKFQGRVTITADESTSTAYMELSSLRSEDTAVYYCARDNWFKPFSDVWGQGTLVTVSS VL: not shown",1.1,,,,50,
"PRO-024 (Fab, V domains shown) VH: QVQLVQSGAEVKKPGSSVKVSCKASGGTFSSYAISWVRQAPGQGLEWMGGIIPIFGTANYAQKFQGRVTITADESTSTAYMELSSLRSEDTAVYYCARVNHWTYTFDYWGQGTLVTVSS VL: not shown",,,,,70,
"PRO-026 (Fab, V domains shown, HuCAL clone; the VL is headed 'MS-Pro-26-VL'; also called MS-Pro-26) VH: QVQLVQSGAEVKKPGASVKVSCKASGYTFTSYYMHWVRQAPGQGLEWMGWINPNSGGTNYAQKFQGRVTMTRDTSISTAYMELSSLRSEDTAVYYCARGYWYAYFTYINYGYFDNWGQGTLVTVSS VL: DIALTQPASVSGSPGQSITISCTGTSSDVGGYNYVSWYQQHPGKAPKLMIYDVSNRPSGVSNRFSGSKSGNTASLTISGLQAEDEADYYCQSYDNNSDVVFGGGTKLTVLG",1.4,,,,70,32
"PRO-055 (Fab, V domains shown) VH: QVQLVQSGAEVKKPGASVKVSCKASGYTFTSYYMHWVRQAPGQGLEWMGWINPNSGGTNYAQKFQGRVTMTRDTSISTAYMELSSLRSEDTAVYYCARSMNSTMYWYLRRVLFDHWGQGTLVTVSS VL: DIALTQPASVSGSPGQSITISCTGTSSDVGGYNYVSWYQQHPGKAPKLMIYDVSNRPSGVSNRFSGSKSGNTASLTISGLQAEDEADYYCQSYDMYNYIVFGGGTKLTVLG",,,,,34,
